T1: EsCas13d, nuclease-dead (Eubacterium siraeum, UniProt B0MS50, R295A;H300A;R849A;H854A)
T1 sequence: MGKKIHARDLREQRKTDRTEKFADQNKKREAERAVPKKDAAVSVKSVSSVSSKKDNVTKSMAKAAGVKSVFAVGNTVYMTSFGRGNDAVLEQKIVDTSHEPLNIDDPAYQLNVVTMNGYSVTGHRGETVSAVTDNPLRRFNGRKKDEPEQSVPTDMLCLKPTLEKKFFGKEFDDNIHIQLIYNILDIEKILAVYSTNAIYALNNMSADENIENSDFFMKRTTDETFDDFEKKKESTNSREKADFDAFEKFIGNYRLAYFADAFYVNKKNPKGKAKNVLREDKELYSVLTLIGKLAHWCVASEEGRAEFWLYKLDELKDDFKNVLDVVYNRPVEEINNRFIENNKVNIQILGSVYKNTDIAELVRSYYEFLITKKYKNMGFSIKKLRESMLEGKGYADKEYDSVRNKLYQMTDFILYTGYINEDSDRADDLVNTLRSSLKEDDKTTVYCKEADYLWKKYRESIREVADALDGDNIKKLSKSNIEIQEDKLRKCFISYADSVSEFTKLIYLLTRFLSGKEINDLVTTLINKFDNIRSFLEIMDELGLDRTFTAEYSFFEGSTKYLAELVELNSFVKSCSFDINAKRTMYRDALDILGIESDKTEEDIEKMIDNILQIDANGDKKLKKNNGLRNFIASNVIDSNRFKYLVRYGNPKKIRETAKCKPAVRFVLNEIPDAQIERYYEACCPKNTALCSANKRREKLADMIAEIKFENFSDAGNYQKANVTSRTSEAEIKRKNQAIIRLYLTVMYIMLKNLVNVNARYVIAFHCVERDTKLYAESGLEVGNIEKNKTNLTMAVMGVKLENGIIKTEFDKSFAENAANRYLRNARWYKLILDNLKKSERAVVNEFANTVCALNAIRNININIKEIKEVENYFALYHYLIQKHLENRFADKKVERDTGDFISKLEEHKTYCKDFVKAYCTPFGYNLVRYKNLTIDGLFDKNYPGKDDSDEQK


What follows are binders tested against T1, EsCas13d, nuclease-dead (assay: crRNA (strand 1, pre-loaded); Mg2+; 40 mM Tris-HCl pH 7.5, 150 mM NaCl, 6 mM MgCl2, 1 mM DTT, 0.1% Tween-20, 0.2 mg/ml BSA; 25 C; 10 min per concentration, then washed). Conditions: tags: His6-TwinStrep-SUMO cleaved; N-terminal SNAP kept (SNAP-Surface 488); label: 3' end held by stalled T7 RNA polymerase.

| Binder | Kd |
| --- | --- |
| target 1 insA 3' of 17,insG 3' of 3 (mixed) RNA 1: CACCCGUGCAAAAAUGCAGGGGUCUAAAACUGAGCGGAUAACCUCUCUAUGG RNA 2: GGGAAUGGAUCCACAUCUACGAAUUCGUACCAUAGAAGAGGUUAUCCGCUGCACCGAGAUCGGAAGAGCACACGU | 10.9 ± 0.6 nM |
| target 1 insA 3' of 22,insA 3' of 6 (mixed) RNA 1: CACCCGUGCAAAAAUGCAGGGGUCUAAAACUGAGCGGAUAACCUCUCUAUGG RNA 2: GGGAAUGGAUCCACAUCUACGAAUUCGUACACAUAGAGAGGUUAUCCAGCUCACCGAGAUCGGAAGAGCACACGU | 22.2 ± 1.3 nM |
| target 3 C1A (mixed) RNA 1: CACCCGUGCAAAAUUGCAGGGGUCUAAAACGACCUGAAUAUUUCAGAUCAAA RNA 2: GGGAAUGGAUCCACAUCUACGAAUUCGUUUUUGAUCUGAAAUAUUCAGGUAUGCAGAUCGGAAGAGCACACGU | 20 ± 2.55 nM |
| target 3 insA 3' of 4,insU 3' of 4 (mixed) RNA 1: CACCCGUGCAAAAUUGCAGGGGUCUAAAACGACCUGAAUAUUUCAGAUCAAA RNA 2: GGGAAUGGAUCCACAUCUACGAAUUCGUUUUUGAUCUGAAAUAUUCAGAUGUCUGCAGAUCGGAAGAGCACACGU | 44 ± 16 nM |
| target 3 insC 3' of 5,insA 3' of 1 (mixed) RNA 1: CACCCGUGCAAAAUUGCAGGGGUCUAAAACGACCUGAAUAUUUCAGAUCAAA RNA 2: GGGAAUGGAUCCACAUCUACGAAUUCGUUUUUGAUCUGAAAUAUUCACGGUCAUGCAGAUCGGAAGAGCACACGU | 23.1 ± 4.05 nM |
| target 3 insA 3' of 7,insC 3' of 4 (mixed) RNA 1: CACCCGUGCAAAAUUGCAGGGGUCUAAAACGACCUGAAUAUUUCAGAUCAAA RNA 2: GGGAAUGGAUCCACAUCUACGAAUUCGUUUUUGAUCUGAAAUAUUACAGCGUCUGCAGAUCGGAAGAGCACACGU | 48.5 ± 8 nM |
| target 3 insU 3' of 22,insU 3' of 3 (mixed) RNA 1: CACCCGUGCAAAAUUGCAGGGGUCUAAAACGACCUGAAUAUUUCAGAUCAAA RNA 2: GGGAAUGGAUCCACAUCUACGAAUUCGUUUUUUGAUCUGAAAUAUUCAGGUUCUGCAGAUCGGAAGAGCACACGU | 27.2 ± 4.15 nM |
| target 3 C1G,U2A (mixed) RNA 1: CACCCGUGCAAAAUUGCAGGGGUCUAAAACGACCUGAAUAUUUCAGAUCAAA RNA 2: GGGAAUGGAUCCACAUCUACGAAUUCGUUUUUGAUCUGAAAUAUUCAGGAGUGCAGAUCGGAAGAGCACACGU | 4.6 ± 0.7 nM |
| target 3 insC 3' of 9,insG 3' of 7 (mixed) RNA 1: CACCCGUGCAAAAUUGCAGGGGUCUAAAACGACCUGAAUAUUUCAGAUCAAA RNA 2: GGGAAUGGAUCCACAUCUACGAAUUCGUUUUUGAUCUGAAAUACUUGCAGGUCUGCAGAUCGGAAGAGCACACGU | 88 ± 21 nM |
| target 3 insU 3' of 18,insC 3' of 11 (mixed) RNA 1: CACCCGUGCAAAAUUGCAGGGGUCUAAAACGACCUGAAUAUUUCAGAUCAAA RNA 2: GGGAAUGGAUCCACAUCUACGAAUUCGUUUUUGAUUCUGAAACUAUUCAGGUCUGCAGAUCGGAAGAGCACACGU | 49 ± 9 nM |
| target 3 insC 3' of 7,insU 3' of 5 (mixed) RNA 1: CACCCGUGCAAAAUUGCAGGGGUCUAAAACGACCUGAAUAUUUCAGAUCAAA RNA 2: GGGAAUGGAUCCACAUCUACGAAUUCGUUUUUGAUCUGAAAUAUUCCAUGGUCUGCAGAUCGGAAGAGCACACGU | 57 ± 7.5 nM |
| target 3 U2G,U7G (mixed) RNA 1: CACCCGUGCAAAAUUGCAGGGGUCUAAAACGACCUGAAUAUUUCAGAUCAAA RNA 2: GGGAAUGGAUCCACAUCUACGAAUUCGUUUUUGAUCUGAAAUAUGCAGGGCUGCAGAUCGGAAGAGCACACGU | 20.9 ± 2.45 nM |
| target 3 insA 3' of 22 (mixed) RNA 1: CACCCGUGCAAAAUUGCAGGGGUCUAAAACGACCUGAAUAUUUCAGAUCAAA RNA 2: GGGAAUGGAUCCACAUCUACGAAUUCGUUUAUUGAUCUGAAAUAUUCAGGUCUGCAGAUCGGAAGAGCACACGU | 20.6 ± 3.4 nM |
| target 3 insU 3' of 9,insG 3' of 9 (mixed) RNA 1: CACCCGUGCAAAAUUGCAGGGGUCUAAAACGACCUGAAUAUUUCAGAUCAAA RNA 2: GGGAAUGGAUCCACAUCUACGAAUUCGUUUUUGAUCUGAAAUAUGUUCAGGUCUGCAGAUCGGAAGAGCACACGU | 89.5 ± 24.5 nM |
| target 3 insG 3' of 5,insG 3' of 1 (mixed) RNA 1: CACCCGUGCAAAAUUGCAGGGGUCUAAAACGACCUGAAUAUUUCAGAUCAAA RNA 2: GGGAAUGGAUCCACAUCUACGAAUUCGUUUUUGAUCUGAAAUAUUCAGGGUCGUGCAGAUCGGAAGAGCACACGU | 37 ± 9.5 nM |
| target 3 U7C,U8G (mixed) RNA 1: CACCCGUGCAAAAUUGCAGGGGUCUAAAACGACCUGAAUAUUUCAGAUCAAA RNA 2: GGGAAUGGAUCCACAUCUACGAAUUCGUUUUUGAUCUGAAAUAGCCAGGUCUGCAGAUCGGAAGAGCACACGU | 73.5 ± 12.5 nM |
| target 3 insG 3' of 7,insU 3' of 6 (mixed) RNA 1: CACCCGUGCAAAAUUGCAGGGGUCUAAAACGACCUGAAUAUUUCAGAUCAAA RNA 2: GGGAAUGGAUCCACAUCUACGAAUUCGUUUUUGAUCUGAAAUAUUGCUAGGUCUGCAGAUCGGAAGAGCACACGU | 20.1 ± 1.9 nM |
| target 3 C1A,U2A (mixed) RNA 1: CACCCGUGCAAAAUUGCAGGGGUCUAAAACGACCUGAAUAUUUCAGAUCAAA RNA 2: GGGAAUGGAUCCACAUCUACGAAUUCGUUUUUGAUCUGAAAUAUUCAGGAAUGCAGAUCGGAAGAGCACACGU | 49 ± 6.5 nM |
| target 3 insA 3' of 6,insU 3' of 3 (mixed) RNA 1: CACCCGUGCAAAAUUGCAGGGGUCUAAAACGACCUGAAUAUUUCAGAUCAAA RNA 2: GGGAAUGGAUCCACAUCUACGAAUUCGUUUUUGAUCUGAAAUAUUCAAGGUUCUGCAGAUCGGAAGAGCACACGU | 5.25 ± 0.5 nM |
| target 3 C1G,U10A (mixed) RNA 1: CACCCGUGCAAAAUUGCAGGGGUCUAAAACGACCUGAAUAUUUCAGAUCAAA RNA 2: GGGAAUGGAUCCACAUCUACGAAUUCGUUUUUGAUCUGAAAAAUUCAGGUGUGCAGAUCGGAAGAGCACACGU | 43 ± 14 nM |
| target 3 C6G,U7G (mixed) RNA 1: CACCCGUGCAAAAUUGCAGGGGUCUAAAACGACCUGAAUAUUUCAGAUCAAA RNA 2: GGGAAUGGAUCCACAUCUACGAAUUCGUUUUUGAUCUGAAAUAUGGAGGUCUGCAGAUCGGAAGAGCACACGU | 46.5 ± 4.5 nM |
| target 3 insA 3' of 6,insC 3' of 3 (mixed) RNA 1: CACCCGUGCAAAAUUGCAGGGGUCUAAAACGACCUGAAUAUUUCAGAUCAAA RNA 2: GGGAAUGGAUCCACAUCUACGAAUUCGUUUUUGAUCUGAAAUAUUCAAGGCUCUGCAGAUCGGAAGAGCACACGU | 7.7 ± 0.6 nM |
| target 3 A9G,U22A (mixed) RNA 1: CACCCGUGCAAAAUUGCAGGGGUCUAAAACGACCUGAAUAUUUCAGAUCAAA RNA 2: GGGAAUGGAUCCACAUCUACGAAUUCGUUAUUGAUCUGAAAUGUUCAGGUCUGCAGAUCGGAAGAGCACACGU | 27.6 ± 3.15 nM |
| target 3 U2C,C6A (mixed) RNA 1: CACCCGUGCAAAAUUGCAGGGGUCUAAAACGACCUGAAUAUUUCAGAUCAAA RNA 2: GGGAAUGGAUCCACAUCUACGAAUUCGUUUUUGAUCUGAAAUAUUAAGGCCUGCAGAUCGGAAGAGCACACGU | 39 ± 7 nM |
| target 3 insA 3' of 20,insC 3' of 20 (mixed) RNA 1: CACCCGUGCAAAAUUGCAGGGGUCUAAAACGACCUGAAUAUUUCAGAUCAAA RNA 2: GGGAAUGGAUCCACAUCUACGAAUUCGUUUUUACGAUCUGAAAUAUUCAGGUCUGCAGAUCGGAAGAGCACACGU | ~110 nM |
| target 3 G3C,U21A (mixed) RNA 1: CACCCGUGCAAAAUUGCAGGGGUCUAAAACGACCUGAAUAUUUCAGAUCAAA RNA 2: GGGAAUGGAUCCACAUCUACGAAUUCGUUUAUGAUCUGAAAUAUUCAGCUCUGCAGAUCGGAAGAGCACACGU | 72.5 ± 13.5 nM |
| target 3 insA 3' of 8,insA 3' of 3 (mixed) RNA 1: CACCCGUGCAAAAUUGCAGGGGUCUAAAACGACCUGAAUAUUUCAGAUCAAA RNA 2: GGGAAUGGAUCCACAUCUACGAAUUCGUUUUUGAUCUGAAAUAUAUCAGGAUCUGCAGAUCGGAAGAGCACACGU | 73 ± 18.5 nM |
| target 3 insC 3' of 13,insG 3' of 2 (mixed) RNA 1: CACCCGUGCAAAAUUGCAGGGGUCUAAAACGACCUGAAUAUUUCAGAUCAAA RNA 2: GGGAAUGGAUCCACAUCUACGAAUUCGUUUUUGAUCUGACAAUAUUCAGGUGCUGCAGAUCGGAAGAGCACACGU | 50 ± 11 nM |
